Holding throughout (assay type): biochemical
Series [1] is described as follows: acidolysis activity of lipases using MCT and oleic acid. As to conditions: MCT (1 gr), oleic acid (0.56 gr), 500 mg enzyme preparation, 50° C., solvent-free.
Experimental: (§7) The acidolysis activity of crude enzymes and enzymes adapted for synthetic reactions was assayed by adding an enzyme preparation (500 mg) into a 10 ml reaction solution containing MCT and a free fatty acid where the molar ratio between both substrates was 1:1. The reaction mixture was shaken for 16 hours at a temperature of 50° C. Samples (0.1 ml) were taken from the reaction mixture and mixed with 10 ml solvent comprised of acetone-dichloromethane at a ratio of 90:10. The samples were filtered through a Millipore filter (pore size 0.45 μm) and then injected to the HPLC.
(§8) The reaction progress was followed by analyzing the triglyceride composition in the reaction medium before and after the enzymatic reaction using an HPLC equipped with an ELSD (Evaporative light Scattering Detector). The HPLC was equipped with a LiChrosorb CH-18 Super (250×4 mm, 5 μm, MERCK). The HPLC running conditions were as follows: mobile phase A, Acetonitrile/Dichloromethane/Acetone (80/15/5); mobile phase B: Acetone/Dichloromethane/Acetone (20/60/20). The flow rate was 1 ml/min and the gradient was 0 to 100% B for 30 min.
(§9) The substrate conversion was calculated as follows: Conversion %=100×(Sum of area of the 4 peaks representing the MCT at time zero)−(Sum of area of the 4 peaks representing the MCT after 16 h reaction time)per Sum of area of the 4 peaks representing the MCT at time zero. The MCT conversion (%) was used as an indicative parameter for the efficiency of enzyme activity to obtain the desired product.
(§10) All lipases were used in their crude form as supplied by the manufacturer (Sigma) or immobilized on an insoluble matrix. Immobilized lipases were activated before their use in the acidolysis reaction containing MCT and a long-chain fatty acid by pretreatment with a biphase system containing 50% triglyceride oil such as olive oil, soy oil and the like and 50% water. This pretreatment lead to the activation of the immobilized enzymes for synthetic applications. […]
Series [2] in a line: acidolysis activity of lipases using MCT and arachidonic acid. The conditions noted are these: for Conversion % (24 h): MCT (1 gr), arachidonic acid (0.6 gr), 500 mg enzyme preparation, 50° C., solvent-free. The protocol:
(§1) The acidolysis activity of crude enzymes and enzymes adapted for synthetic reactions was assayed by adding an enzyme preparation (500 mg) into a 10 ml reaction solution containing MCT and a free fatty acid where the molar ratio between both substrates was 1:1. […] Samples (0.1 ml) were taken from the reaction mixture and mixed with 10 ml solvent comprised of acetone-dichloromethane at a ratio of 90:10. The samples were filtered through a Millipore filter (pore size 0.45 μm) and then injected to the HPLC.
(§2) The reaction progress was followed by analyzing the triglyceride composition in the reaction medium before and after the enzymatic reaction using an HPLC equipped with an ELSD (Evaporative light Scattering Detector). The HPLC was equipped with a LiChrosorb CH-18 Super (250×4 mm, 5 μm, MERCK). The HPLC running conditions were as follows: mobile phase A, Acetonitrile/Dichloromethane/Acetone (80/15/5); mobile phase B: […] (20/60/20). The flow rate was 1 ml/min and the gradient was 0 to 100% B for 30 min.
(§3) The substrate conversion was calculated as follows: Conversion %=100×(Sum of area of the 4 peaks representing the MCT at time zero)−([…])per Sum of area of the 4 peaks representing the MCT at time zero. The MCT conversion (%) was used as an indicative parameter for the efficiency of enzyme activity to obtain the desired product. Results
(§4) Tables 1-12 show the acidolysis activity of various lipases, which were screened for their ability to catalyze the reaction between MCT and free fatty acids in a solvent-free system according to the enzymatically catalyzed reaction presented in FIG. 1. All lipases were used in their crude form as supplied by the manufacturer (Sigma) or immobilized on an insoluble matrix. Immobilized lipases were activated before their use in the acidolysis reaction containing MCT and a long-chain fatty acid by pretreatment with a biphase system containing 50% triglyceride oil such as olive oil, soy oil and the like and 50% water. This pretreatment lead to the activation of the immobilized enzymes for synthetic applications.
A typical enzyme activation and immobilization procedure used in this example is as follows: 1 g of a crude lipase preparation was dissolved in a 1 L of phosphate buffer solution of an appropriate pH according to the recommendation of the enzyme's manufacturer. 10 g of support matrix (silica, celite, an ion-exchange resin such as DUOLITE® A56, DUOLITE® A7, DUOLITE® XAD761, or Amberlite™ XAD16) were added into the stirred enzyme solution. The slurry was shaken for 8 hours at a temperature of 10° C. Hundred ml of cold acetone was optionally added into the stirred slurry in order to enhance the enzyme immobilization on the matrix surface. […]

Series [3] can be described thus: acidolysis activity of lipases using MCT and stearic acid. As to conditions: MCT (1 gr), stearic acid (0.56 gr), 500 mg enzyme preparation, 50° C., solvent-free.
Experimental: as §7, §8, §9
All lipases were used in their crude form as supplied by the manufacturer (Sigma) or immobilized on an insoluble matrix. Immobilized lipases were activated before their use in the acidolysis reaction containing MCT and a long-chain fatty acid by pretreatment with a biphase system containing 50% triglyceride oil such as olive oil, soy oil and the like and 50% water. […]
Series [4] in a line: acidolysis activity of lipases using MCT and caprylic acid. As to conditions: for Conversion % (24 h): MCT (1 gr), caprylic acid (0.28 gr), 500 mg enzyme preparation, 50° C., solvent-free; for acidolysis activity in words, Caprylic acid and MCT: summary of Table 2. The protocol: as §1, §2, §3, §4
(§5) A typical enzyme activation and immobilization procedure used in this example is as follows: 1 g of a crude lipase preparation was dissolved in a 1 L of phosphate buffer solution of an appropriate pH according to the recommendation of the enzyme's manufacturer. 10 g of support matrix (silica, celite, an ion-exchange resin such as DUOLITE® A56, DUOLITE® A7, DUOLITE® XAD761, or Amberlite™ XAD16) were added into the stirred enzyme solution. The slurry was shaken for 8 hours at a temperature of 10° C. Hundred ml of cold acetone was optionally added into the stirred slurry in order to enhance the enzyme immobilization on the matrix surface. The immobilized enzyme was filtered of from the mixture and then freeze-dried or used wet for the following step. One g of freeze-dried immobilized lipase (water content of less than 2 weight %) or wet immobilized lipase (water content of approx. 20%) was added into a biphase system comprised of 5 g olive oil and 2 g buffer solution of pH7 at room temperature. The mixture was stirred for 10 min. The immobilized lipases was filtered of from the mixture, washed with cold acetone, dried in a desiccator and then used for the acidolysis reaction between MCT and a fatty acyl donor.
(§6) Reaction conditions: MCT (1 gr), caproic acid (0.23 gr), and 500 mg enzyme preparation. The reaction mixture was shaken and thermostated at 50° C. for 16 h. […]

The nature of series [5]: acidolysis activity of lipases using MCT and EPA. The conditions noted are these: for Conversion % (24 h): MCT (1 gr), EPA (0.6 gr), 500 mg enzyme preparation, 50° C., solvent-free; for efficiency of incorporation of EPA into MCT, in words: summary of Table 11. The protocol:
as §1, §2, §3, §4, §5, §6

The nature of series [6]: acidolysis activity of lipases using MCT and caproic acid. As to conditions: for Conversion % (24 h): MCT (1 gr), caproic acid (0.23 gr), 500 mg enzyme preparation, 50° C., solvent-free; for acidolysis activity in words, Caproic acid and MCT: summary of Table 1.
Experimental: as §7, §8, §9
Series [7] is described as follows: acidolysis activity of lipases using MCT and alpha-linolenic acid. The conditions noted are these: MCT (1 gr), alpha-linolenic acid (0.55 gr), 500 mg enzyme preparation, 50° C., solvent-free.
Experimental: as §7, §8, §9, §10
A short description of series [8]: acidolysis activity of lipases using MCT and DHA. As to conditions: MCT (1 gr), DHA (0.65 gr), 500 mg enzyme preparation, 50° C., solvent-free. The protocol: as §1, §2, §3
as §4, with “applications. […]” for “applications.”

The nature of series [9]: acidolysis activity of lipases using MCT and lauric acid. As to conditions: MCT (1 gr), lauric acid (0.4 gr), 500 mg enzyme preparation, 50° C., solvent-free.
Experimental: as §7, §8, §9
Reaction conditions as described in Table 1, with one modification, namely lauric acid (0.4 gr) was used as the fatty acid.
Series [10] in a line: acidolysis activity of lipases using MCT and linoleic acid. As to conditions: MCT (1 gr), linoleic acid (0.55 gr), 500 mg enzyme preparation, 50° C., solvent-free. The protocol: as §1, §2, §3
as §4, with “applications. […]” for “applications.”

The nature of series [11]: acidolysis activity of lipases using MCT and capric acid. The conditions noted are these: MCT (1 gr), capric acid (0.34 gr), 500 mg enzyme preparation, 50° C., solvent-free. The protocol:
as §1, §2, §3
as §4, with “applications. […]” for “applications.”

The nature of series [12]: acidolysis activity of lipases using MCT and palmitic acid. The conditions noted are these: MCT (1 gr), palmitic acid (0.51 gr), 500 mg enzyme preparation, 50° C., solvent-free. The protocol: as §1, §2, §3
as §4, with “applications. […]” for “applications.”

B1: Mucor miehei: lipase of Mucor miehei origin (Sigma), crude or immobilized (protein, UniProt P19515 95-363, looked up)
Lipase: SIDGGIRAATSQEINELTYYTTLSANSYCRTVIPGATWDCIHCDATEDLKIIKTWSTLIYDTNAMVARGDSEKTIYIVFRGSSSIRNWIADLTFVPVSYPPVSGTKVHKGFLDSYGEVQNELVATVLDQFKQYPSYKVAVTGHSLGGATALLCALDLYQREEGLSSSNLFLYTQGQPRVGDPAFANYVVSTGIPYRRTVNERDIVPHLPPAAFGFLHAGEEYWITDNSPETVQVCTSDLETSDCSNSIVPFTSVLDHLSYFGINTGLCT
modifications: crude or immobilized
With B1, the “Conversion % (24 h)” value was 40% in series [1]; 3% in series [2]; 42% in series [3]; 42% in series [4]; 25% in series [5]; 35% in [6]. Moreover, the “Conversion % (24 h)” value is 31% in series [7], 27% in series [8] and 38% in series [9]. Also, the “acidolysis activity in words, Caprylic acid and MCT” value in series [4] is reported as “reasonable acidolysis activity”. For the same molecule, in series [5], the “efficiency of incorporation of EPA into MCT, in words” value is reported as “the most efficient enzymes”. The “acidolysis activity in words, Caproic acid and MCT” value in [6] is “preferred sources”. The Conversion % in series [10] is 41%; in series [11], 39%; in [12], 41%.

B2: Rhizomucor miehei: lipase of Rhizomucor miehei origin (Sigma), crude or immobilized (protein, UniProt P19515 95-363, looked up)
Lipase: B1 Lipase
modifications: crude or immobilized
Take B2: the “Conversion % (24 h)” value in series [1] is 43%; in series [2], 15%; in [3], 37%; in [4], 37%; in [5], 30%; in series [6], 31%. In addition, the “Conversion % (24 h)” value in [7] was found to be 39%; in series [8], 16%; in series [9], 39%. Also, the “efficiency of incorporation of ARA into MCT, in words” value in series [2] (summary of Table 10) was “among the most efficient enzymes”. Moreover, the “acidolysis activity in words, Caprylic acid and MCT” value in series [4] was “reasonable acidolysis activity”. Moreover, the “efficiency of incorporation of EPA into MCT, in words” value in series [5] is listed as “the most efficient enzymes”. The “acidolysis activity in words, Caproic acid and MCT” value in [6] is listed as “preferred sources”. Further, the figures for the Conversion % in [10], in [11] and in [12] were 35%, 37% and 33%, respectively.

B3: Porcine pancreas lipase: lipase from porcine pancreas (Sigma), crude or immobilized (protein, UniProt P00591 1-450, looked up)
Pancreatic triacylglycerol …: SEVCFPRLGCFSDDAPWAGIVQRPLKILPWSPKDVDTRFLLYTNQNQNNYQELVADPSTITNSNFRMDRKTRFIIHGFIDKGEEDWLSNICKNLFKVESVNCICVDWKGGSRTGYTQASQNIRIVGAEVAYFVEVLKSSLGYSPSNVHVIGHSLGSHAAGEAGRRTNGTIERITGLDPAEPCFQGTPELVRLDPSDAKFVDVIHTDAAPIIPNLGFGMSQTVGHLDFFPNGGKQMPGCQKNILSQIVDIDGIWEGTRDFVACNHLRSYKYYADSILNPDGFAGFPCDSYNVFTANKCFPCPSEGCPQMGHYADRFPGKTNGVSQVFYLNTGDASNFARWRYKVSVTLSGKKVTGHILVSLFGNEGNSRQYEIYKGTLQPDNTHSDEFDSDVEVGDLQKVKFIWYNNNVINPTLPRVGASKITVERNDGKVYDFCSQETVREEVLLTLNPC
modifications: crude or immobilized
With B3, the “Conversion % (24 h)” value in series [1] was 4%; in series [2] it was 2%; in [3], 5%; in [4], 5%; in series [5], 3%; in series [6], 6%. For the same molecule, the “Conversion % (24 h)” value in series [7] is on record as 6%; in series [8] it was 5%; in series [9] it was 6%. For the same molecule, the Conversion % was found to be 5% in series [10], 5% in [11] and 1% in series [12].
